Laboratory results from patent US20110104145A1, “METHOD FOR THE TREATMENT OR PROPHYLAXIS OF CHRONIC INFLAMMATORY DISEASES” (priority 2008, published 2011).

Target: CD89 (Fc receptor for IgA) on polymorphonuclear cells (human) (UniProt P24071)
Test: cell-based or functional assay

CD89 (Fc receptor for IgA) on polymorphonuclear cells (human), sequence (P24071 22-287): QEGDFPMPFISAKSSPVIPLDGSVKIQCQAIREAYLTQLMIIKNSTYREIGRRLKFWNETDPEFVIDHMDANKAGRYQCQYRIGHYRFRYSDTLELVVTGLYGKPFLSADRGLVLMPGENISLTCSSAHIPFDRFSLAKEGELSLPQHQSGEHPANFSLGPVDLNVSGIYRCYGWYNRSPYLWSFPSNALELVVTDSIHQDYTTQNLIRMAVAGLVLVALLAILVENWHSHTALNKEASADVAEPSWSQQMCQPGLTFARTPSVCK

percentage blocking (polymorphonuclear cells bound to IgA-coated beads, 2-D migration assay)	Substance
75 to 90%	anti-CD89 monoclonal antibody MIP8a
30%	anti-CD89 monoclonal antibody MY43
